These results are taken from paper PMC6775164.

The target in test [1] is P74-26 decoration protein (gene product 87) (bacteriophage P74-26). The test is described as follows: cryo-EM structure; single-particle reconstruction of the capsid of purified P74-26 virions with icosahedral symmetry imposed; virions in 50 mM Tris pH 8.0, 10 mM NaCl, 10 mM MgCl2; 2.8 Å (0.143 FSC).
Test [2] has as its target P74-26 major capsid protein (gene product 86) (bacteriophage P74-26). Described as above.

Several values for one entry are separate records, joined by “and”; a condition that tells them apart may be missing. Equal values may be shown once.

For the substance “P74-26 decoration protein (gene product 87) (natural protein)”, the stoichiometry N (commonly a count of units in the complex or per binding partner) in test [1] is 3.

“P74-26 major capsid protein (gene product 86) (natural protein)”: the stoichiometry N in test [2] is 5 and 6.
